Test results from paper PMC11418285.

Key:
[1] = target: FcγRIIIa (CD16a) 158F allele (human) (UniProt P08637)
FcγRI (CD64) (human) = FcγRI (CD64) (human) (UniProt P12314)
UniProt P12314, sequence (P12314 16-374): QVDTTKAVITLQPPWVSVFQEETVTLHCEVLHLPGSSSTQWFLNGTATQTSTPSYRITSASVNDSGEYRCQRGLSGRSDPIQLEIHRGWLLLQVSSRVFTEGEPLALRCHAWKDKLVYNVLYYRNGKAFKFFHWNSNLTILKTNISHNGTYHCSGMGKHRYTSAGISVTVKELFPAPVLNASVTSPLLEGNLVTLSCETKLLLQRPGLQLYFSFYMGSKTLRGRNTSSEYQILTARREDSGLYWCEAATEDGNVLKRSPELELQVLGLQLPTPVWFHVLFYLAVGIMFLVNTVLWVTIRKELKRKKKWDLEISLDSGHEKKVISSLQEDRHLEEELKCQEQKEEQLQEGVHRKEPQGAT

UniProt P08637, sequence (P08637 17-254): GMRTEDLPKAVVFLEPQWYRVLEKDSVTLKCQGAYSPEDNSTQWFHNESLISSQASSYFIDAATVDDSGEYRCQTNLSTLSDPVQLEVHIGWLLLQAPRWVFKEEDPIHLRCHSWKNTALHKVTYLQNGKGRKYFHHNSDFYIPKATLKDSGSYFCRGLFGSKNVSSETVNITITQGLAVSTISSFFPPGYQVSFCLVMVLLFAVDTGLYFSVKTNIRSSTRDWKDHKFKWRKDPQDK

ADCC activity, Fc effector cell reporter bioassay, relative to wild-type IgG1 [1]	ADCP activity, Fc effector cell reporter bioassay, relative to wild-type IgG1 (FcγRI (CD64) (human))	Substance
201 fold		anti-CD20 antibody with rituximab V regions, afucosylated wild-type human IgG1
	1.87 fold	anti-CD20 antibody with rituximab V regions, human IgG1 S239D A330L I332E
